Experimental data taken from US20190352387A1 (Chugai, published 2019).

Experiments:
[1] = biological target: T1, Recombinant mouse sclerostin (mouse, UniProt Q99P68 24-211); experiment: cell-based or functional assay
T1 sequence: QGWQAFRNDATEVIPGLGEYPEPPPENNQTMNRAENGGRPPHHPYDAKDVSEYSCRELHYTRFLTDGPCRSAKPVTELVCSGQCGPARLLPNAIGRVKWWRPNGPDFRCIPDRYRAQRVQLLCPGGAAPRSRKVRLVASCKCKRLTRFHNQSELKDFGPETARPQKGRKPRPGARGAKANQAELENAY

[2] = biological target: T1, Recombinant mouse sclerostin; experiment: cell-based or functional assay; remark: listed apart in the source
[3] = biological target: T2, Recombinant human sclerostin (human, UniProt Q9BQB4 24-213); experiment: SPR (Biacore), dissociation at pH 5.8 of complex formed at pH 7.4
T2 construct: Whole entry as named; Secreted recombinant protein purified from FreeStyle293-F conditioned medium; also called human-SOST; Human SOST
T2 sequence: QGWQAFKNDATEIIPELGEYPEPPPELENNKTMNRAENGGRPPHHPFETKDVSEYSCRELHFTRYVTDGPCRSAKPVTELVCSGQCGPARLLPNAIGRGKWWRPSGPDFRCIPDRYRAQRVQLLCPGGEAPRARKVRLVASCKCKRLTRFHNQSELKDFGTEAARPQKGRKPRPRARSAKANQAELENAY
Protocol: The affinity of anti-sclerostin variants binding to human, cynomolgus monkey (cyno), rat, or mouse sclerostin at pH 7.4 and pH 5.8 were determined at 37 degrees C. using Biacore T200 instrument (GE Healthcare). Anti-human Fc (GE Healthcare) was immobilized onto all flow cells of a CM4 sensor chip using amine coupling kit (GE Healthcare). All antibodies and analytes were prepared in ACES pH7.4 or pH 5.8 buffer containing 20 mM ACES, 150 mM NaCl, 1.2 mM CaCl₂, 0.05% Tween 20, 0.005% NaN₃. Each antibody was captured onto the sensor surface by anti-human Fc. […] Sensor surface was regenerated each cycle with 3M MgCl₂.
The pH dependent interaction assessment was determined by a modified Biacore assay. Briefly, an additional dissociation phase at pH5.8 was integrated into the Biacore assay immediately after dissociation phase at pH7.4. This is to assess the pH-dependent dissociation between antibody and antigen from the complexes formed at pH7.4. The dissociation rate at pH5.8 buffer was determined by processing and fitting data using Scrubber 2.0 (BioLogic Software) curve fitting software.

[4] = biological target: T2, Recombinant human sclerostin; experiment: cell-based or functional assay
[5] = biological target: T3, Recombinant cynomolgus monkey sclerostin (cynomolgus monkey, UniProt Q9BG78 24-213 (Chlorocebus aethiops entry)); experiment: cell-based or functional assay
T3 chain: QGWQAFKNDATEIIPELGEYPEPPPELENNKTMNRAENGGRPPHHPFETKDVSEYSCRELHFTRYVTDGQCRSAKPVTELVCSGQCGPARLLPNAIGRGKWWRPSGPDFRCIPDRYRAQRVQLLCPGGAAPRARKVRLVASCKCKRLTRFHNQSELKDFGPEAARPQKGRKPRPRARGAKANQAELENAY

[6] = biological target: T2, Recombinant human sclerostin; experiment: SPR; captured antibody (SG1/SK1 constant regions), recombinant human SOST as analyte; response normalised by the capture level of the antibody [panel A-A-B]
[7] = biological target: T2, Recombinant human sclerostin; experiment: SPR; captured antibody (SG1/SK1 constant regions), recombinant human SOST as analyte; response normalised by the capture level of the antibody [panel A-B-B]
[8] = biological target: T2, Recombinant human sclerostin; experiment: SPR; captured antibody (SG1/SK1 constant regions), recombinant human SOST as analyte; response normalised by the capture level of the antibody [panel B-B-A]
[9] = biological target: T2, Recombinant human sclerostin; experiment: SPR; captured antibody (SG1/SK1 constant regions), recombinant human SOST as analyte; response normalised by the capture level of the antibody [panel B-A-B]
[10] = biological target: T3, Recombinant cynomolgus monkey sclerostin; experiment: SPR (Biacore T200), 37 C, dissociation at pH 5.8 of complex formed at pH 7.4
[11] = biological target: T4, Recombinant rat sclerostin (rat, UniProt Q99P67 29-213); experiment: as above
T4 construct: Whole entry as named; also called rat-SOST
T4 sequence: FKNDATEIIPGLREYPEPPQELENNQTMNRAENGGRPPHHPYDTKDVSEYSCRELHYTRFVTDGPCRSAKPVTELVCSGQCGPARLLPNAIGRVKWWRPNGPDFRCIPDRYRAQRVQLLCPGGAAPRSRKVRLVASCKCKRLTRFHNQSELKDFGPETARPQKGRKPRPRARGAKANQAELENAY

[12] = biological target: T1, Recombinant mouse sclerostin; experiment: as above
[13] = biological target: T2, Recombinant human sclerostin; experiment: as above

B1: mabB//mabA_pH2-BS01 (bispecific antibody, human IgG1, kappa)
heavy 1: QVQLVQSGAEVKKPGASVKVSCKVSGFPIKHHFQHWVRQAPGKGLEWMGWSDPEIGDTEYASKFQGRVTMTEDTSTDTAYMELSSLRSEDTAVYYCATGHTTYKFDFWGQGTTVTVSSASTKGPSVFPLAPSSRSTSESTAALGCLVKDYFPEPVTVSWNSGALTSGVHTFPAVLQSSGLYSLSSVVTVPSSSLGTKTYTCNVDHKPSNTKVDKRVEPKSCDKTHTCPPCPAPELLGGPSVFLFPPKPKDTLMISRTPEVTCVVVDVSQEDPEVQFNWYVDGVEVHNAKTKPREEQFNSTYRVVSVLTVLHQDWLNGKEYKCKVSNKGLPSSIEKTISKAKGQPREPQVYTLPPSREEMTKNQVSLTCLVKGFYPSDIAVEWESNGQPENNYKTTPPYLDSDGSFFLYSKLTVDKSRWQQGNVFSCSVMHEALHNHYTQESLSLSP
light 1: DIQMTQSPSSLSASVGDRVTITCKASQDVHTAVAWYQQKPGKAPKLLIYWASTRWTGVPSRFSGSGSGTDFTLTISSLQPEDFATYYCQQYSDYHWTFGGGTKVEIKRTVAAPSVFIFPPSDEQLKSGTASVVCLLNNFYPREAKVQWKVDNALQSGNSQESVTEQDSKDSTYSLSSTLTLSKADYEKHKVYACEVTHQGLSSPVTKSFNRGEC
heavy 2: EVQLVQSGAEVKKPGASVKVSCKASGYTFTDYNMHWVRQAPGQGLEWMGEINPHSGHAGYNQKFKGRVTMTTDTSTSTAYMELRSLRSDDTAVYYCARLHYDDIHDDWYFDVWGQGTTVTVSSASTKGPSVFPLAPSSRSTSESTAALGCLVKDYFPEPVTVSWNSGALTSGVHTFPAVLQSSGLYSLSSVVTVPSSSLGTKTYTCNVDHKPSNTKVDKRVEPKSCDKTHTCPPCPAPELLGGPSVFLFPPKPKDTLMISRTPEVTCVVVDVSQEDPEVQFNWYVDGVEVHNAKTKPREEQFNSTYRVVSVLTVLHQDWLNGKEYKCKVSNKGLPSSIEKTISKAKGQPREPQVYTLPPSRKEMTKNQVSLTCLVKGFYPSDIAVEWESNGQPENNYKTTPPYLDSDGSFFLYSKLTVDKSRWQQGNVFSCSVMHEALHNHYTQKSLSLSP
light 2: not shown
MFI of pHrodo-Red-labelled mouse sclerostin taken up into MDCK cells expressing human Fc gamma receptor IIB and human FcRn (flow cytometry) [1]: 1960 MFI
IC50 (read off the curve); Wnt1-induced TCF/LEF luciferase reporter in HEK293T cells, % Inhibition of mouse SOST [2]: ~9 µg/mL

B2: amH848/bsH638/abL152 (bispecific antibody)
heavy 1: not shown
heavy 2: not shown
VL: DIQMTQSPSSLSASVGDRVTITCRASEGIHDALAWYQQKPGKAPKLLIYWASTLESGVPSRFSGSGSGTDFTLTISSLQPEDFATYYCQQGDTLPYTFGGGTKVEIK
notes: Biparatopic, common light chain
koff [3]: 0.1 s⁻¹

B3: amH852/bsH638/abL152 (bispecific antibody)
heavy 1: not shown
heavy 2: not shown
VL: DIQMTQSPSSLSASVGDRVTITCRASEGIHDALAWYQQKPGKAPKLLIYWASTLESGVPSRFSGSGSGTDFTLTISSLQPEDFATYYCQQGDTLPYTFGGGTKVEIK
notes: as for B2
koff [3]: 0.028 s⁻¹
IC50 (read off the curve); Wnt1-induced TCF/LEF luciferase reporter in HEK293T cells, % Inhibition of human SOST [4]: ~10 µg/mL

B4: amH852/bsH656/abL152 (bispecific antibody)
heavy 1: not shown
heavy 2: not shown
VL: DIQMTQSPSSLSASVGDRVTITCRASEGIHDALAWYQQKPGKAPKLLIYWASTLESGVPSRFSGSGSGTDFTLTISSLQPEDFATYYCQQGDTLPYTFGGGTKVEIK
IC50 (read off the curve); Wnt1-induced TCF/LEF luciferase reporter in HEK293T cells, % Inhibition of human SOST [4]: ~10 µg/mL

B5: mabA-hG2 (antibody, human IgG2, kappa, V domains shown)
VH: EVQLVQSGAEVKKPGASVKVSCKASGYTFTDYNMHWVRQAPGQGLEWMGEINPNSGGAGYNQKFKGRVTMTTDTSTSTAYMELRSLRSDDTAVYYCARLGYDDIYDDWYFDVWGQGTTVTVSS
VL: DIQMTQSPSSLSASVGDRVTITCRASQDISNYLNWYQQKPGKAPKLLIYYTSRLLSGVPSRFSGSGSGTDFTLTISSLQPEDFATYYCQQGDTLPYTFGGGTKVEIKR
IC50 (read off the curve); Wnt1-induced TCF/LEF luciferase reporter in HEK293T cells, % Inhibition of monkey SOST [5]: ~4 µg/mL

B6: mabB heavy chain combined with light chain variant A-A-B (antibody, human IgG1, kappa, V domains shown)
VH: QVQLVQSGAEVKKPGASVKVSCKVSGFPIKDTFQHWVRQAPGKGLEWMGWSDPEIGDTEYASKFQGRVTMTEDTSTDTAYMELSSLRSEDTAVYYCATGDTTYKFDFWGQGTTVTVSS
VL: DIQMTQSPSSLSASVGDRVTITCRASQDISNYLNWYQQKPGKAPKLLIYYTSRLLSGVPSRFSGSGSGTDFTLTISSLQPEDFATYYCQQYSDYPWTFGGGTKVEIKR
notes: also called A-A-B with the mabB heavy chain
binding result [6]: binds

B7: mabB heavy chain combined with light chain variant A-B-B (antibody, human IgG1, kappa, V domains shown)
VH: QVQLVQSGAEVKKPGASVKVSCKVSGFPIKDTFQHWVRQAPGKGLEWMGWSDPEIGDTEYASKFQGRVTMTEDTSTDTAYMELSSLRSEDTAVYYCATGDTTYKFDFWGQGTTVTVSS
VL: DIQMTQSPSSLSASVGDRVTITCRASQDISNYLNWYQQKPGKAPKLLIYWASTRWTGVPSRFSGSGSGTDFTLTISSLQPEDFATYYCQQYSDYPWTFGGGTKVEIKR
notes: also called A-B-B with the mabB heavy chain
binding result [7]: binds

B8: mabB heavy chain combined with light chain variant B-B-A (antibody, human IgG1, kappa, V domains shown)
VH: QVQLVQSGAEVKKPGASVKVSCKVSGFPIKDTFQHWVRQAPGKGLEWMGWSDPEIGDTEYASKFQGRVTMTEDTSTDTAYMELSSLRSEDTAVYYCATGDTTYKFDFWGQGTTVTVSS
VL: DIQMTQSPSSLSASVGDRVTITCKASQDVHTAVAWYQQKPGKAPKLLIYWASTRWTGVPSRFSGSGSGTDFTLTISSLQPEDFATYYCQQGDTLPYTFGGGTKVEIKR
notes: also called B-B-A with the mabB heavy chain
binding result [8]: binds

B9: mabB heavy chain combined with light chain variant B-A-B (antibody, human IgG1, kappa, V domains shown)
VH: QVQLVQSGAEVKKPGASVKVSCKVSGFPIKDTFQHWVRQAPGKGLEWMGWSDPEIGDTEYASKFQGRVTMTEDTSTDTAYMELSSLRSEDTAVYYCATGDTTYKFDFWGQGTTVTVSS
VL: DIQMTQSPSSLSASVGDRVTITCKASQDVHTAVAWYQQKPGKAPKLLIYYTSRLLSGVPSRFSGSGSGTDFTLTISSLQPEDFATYYCQQYSDYPWTFGGGTKVEIKR
notes: also called B-A-B with the mabB heavy chain
binding result [9]: binds

B10: mabA heavy chain combined with light chain variant A-A-B (antibody, human IgG1, kappa, V domains shown)
VH: EVQLVQSGAEVKKPGASVKVSCKASGYTFTDYNMHWVRQAPGQGLEWMGEINPNSGGAGYNQKFKGRVTMTTDTSTSTAYMELRSLRSDDTAVYYCARLGYDDIYDDWYFDVWGQGTTVTVSS
VL: DIQMTQSPSSLSASVGDRVTITCRASQDISNYLNWYQQKPGKAPKLLIYYTSRLLSGVPSRFSGSGSGTDFTLTISSLQPEDFATYYCQQYSDYPWTFGGGTKVEIKR
notes: also called A-A-B with the mabA heavy chain
binding result [6]: no binding

B11: mabA_NpH1 (antibody, V domains shown)
VH: EVQLVQSGAEVKKPGASVKVSCKASGYTFTDYNMHWVRQAPGQGLEWMGEINPNSGGAGYNQKFKGRVTMTTDTSTSTAYMELRSLRSDDTAVYYCARLGYDDIYDDWYFHVWGQGTTVTVSS
VL: DIQMTQSPSSLSASVGDRVTITCRASQDISNYLNWYQQKPGKAPKLLIYHTSRLLSGVPSRFSGSGSGTDFTLTISSLQPEDFATYYCQQGDTLPYTFGGGTKVEIK
koff [10]: 0.00182 s⁻¹
koff [11]: 0.000805 s⁻¹
koff [12]: 0.00191 s⁻¹
koff [13]: 0.00214 s⁻¹

B12: mabA_pH2 (antibody, V domains shown)
VH: EVQLVQSGAEVKKPGASVKVSCKASGYTFTDYNMHWVRQAPGQGLEWMGEINPNSGHAGYNQKFKGRVTMTTDTSTSTAYMELRSLRSDDTAVYYCARLHYDHIYDDWYFDVWGQGTTVTVSS
VL: DIQMTQSPSSLSASVGDRVTITCRASHDISNYLNWYQQKPGKAPKLLIYYTSRLLSGVPSRFSGSGSGTDFTLTISSLQPEDFATYYCQQGDTLPYTFGGGTKVEIK
koff [11]: 0.00486 s⁻¹
koff [12]: 0.00805 s⁻¹
